Laboratory results taken from publication PMC5549770, “Human cytomegalovirus IE1 downregulates Hes1 in neural progenitor cells as a potential E3 ubiquitin ligase” (PLoS Pathogens, 2017).

T1: His-IE1 (pET-IE1) (human cytomegalovirus (Towne strain), UniProt P03169 1-491)
T1 construct: HCMV IE1 (UL123), wild type, cloned into pET28a; 491 amino acids (Towne); also called purified IE1; source: E. coli BL21, purified (cOmplete His-Tag Purification Resin); not shown: His6, N-terminal, kept
T1 sequence: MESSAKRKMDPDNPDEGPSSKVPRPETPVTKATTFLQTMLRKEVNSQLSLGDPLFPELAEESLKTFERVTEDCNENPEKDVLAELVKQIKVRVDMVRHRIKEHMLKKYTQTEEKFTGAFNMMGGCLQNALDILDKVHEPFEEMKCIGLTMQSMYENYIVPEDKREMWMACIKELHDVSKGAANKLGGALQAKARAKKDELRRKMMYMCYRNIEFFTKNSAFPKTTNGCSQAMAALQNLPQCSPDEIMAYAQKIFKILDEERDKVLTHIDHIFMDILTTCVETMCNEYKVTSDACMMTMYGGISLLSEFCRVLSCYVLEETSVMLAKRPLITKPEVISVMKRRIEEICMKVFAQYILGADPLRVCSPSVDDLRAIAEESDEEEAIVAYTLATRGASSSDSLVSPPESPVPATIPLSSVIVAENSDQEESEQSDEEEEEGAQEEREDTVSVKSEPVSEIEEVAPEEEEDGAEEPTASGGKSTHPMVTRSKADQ


Experiments:
His-IE1 (pET-IE1) [1] = biological target: T1, His-IE1 (pET-IE1); assay: pull-down; in vitro pull-down: 1μg of each purified His-tagged protein (His-IE1 or His-Δ451–475 with His-Hes1) mixed in 300μl Buffer A (50mM NaH2PO4, 300mM NaCl, pH 8.0), antibody overnight at 4°C, protein A+G agarose; conditions: both partners purified
His-IE1 (pET-IE1) [2] = biological target: T1, His-IE1 (pET-IE1); assay: pull-down; purified His-Sp100A mixed with Ubc5a in the presence of purified His-IE1; Sp100A- or Ubc5a-directed IP, IB; Buffer A, 4°C; conditions: both partners purified

| Binder | binding result (His-IE1 (pET-IE1) [1]) | binding result (His-IE1 (pET-IE1) [2]) |
| --- | --- | --- |
| His-Hes1 (pET-Hes1) (natural protein, human, UniProt Q14469 1-280, looked up, human Hes1 cloned into pET28a; also called purified Hes1; source: E. coli BL21, purified (cOmplete His-Tag Purification Resin); not shown: His6, N-terminal, kept) MPADIMEKNSSSPVAATPASVNTTPDKPKTASEHRKSSKPIMEKRRRARINESLSQLKTLILDALKKDSSRHSKLEKADILEMTVKHLRNLQRAQMTAALSTDPSVLGKYRAGFSECMNEVTRFLSTCEGVNTEVRTRLLGHLANCMTQINAMTYPGQPHPALQAPPPPPPGPGGPQHAPFAPPPPLVPIPGGAAPPPGGAPCKLGSQAGEAAKVFGGFQVVPAPDGQFAFLIPNGAFAHSGPVIPVYTSNSGTSVGPNAVSPSSGPSLTADSMWRPWRN | binds |  |
| His-Sp100A (pET-Sp100A) (natural protein, human Sp100A (isoform A of the nuclear autoantigen Sp-100) cloned into pET28a; also called purified Sp100A; source: E. coli BL21, purified (cOmplete His-Tag Purification Resin); not shown: His6, N-terminal, kept) not shown |  | binds |
